From patent publication US7943731 (MIT, dated 2011)

Molecular target: the molecule itself
Test: sedimentation equilibrium, self-association in solution without DNA
Protocol: Sedimentation Equilibrium. Peptide samples at three concentrations, ranging from ≈10 µM to ≈100 µM, were centrifuged to equilibrium in a Beckman Optima XL-A at 20,000 and 30,000 rpm at 4° C. in a buffer containing 15 mM Tris, pH 7.8, 150 mM KCl, 5 mM MgCl_2, 20 µM ZnSO_4, and 0.2 mM DTT. Solvent density and partial specific volumes of peptides were calculate at described (13). The sedimentation data were analyzed by methods described in refs. 14 and 15, using the program NONLIN (16).

B1: Zif12 peptide (amino acids 2-59 of Zif268, Gly-Ser dipeptide at the N terminus) (other)
chain: not shown
notes: range 2-59; No N-terminal peptide extension; also called isolated Zif12 domain; Zif1-Zif2 construct
**Q.** Does B1 bind?
**A.** no binding (tested: ≈100 µM)
